# Article PMC9631961
# Target: Vsg-GFP fusion protein (D. melanogaster Vsg, transiently expressed in U2OS cells) (Drosophila melanogaster)
# Assay: immunostaining of cells or tissue
substance,measurement,value
TcdA1 (TcA subunit of the Photorhabdus luminescens Tc toxin pTc) (from UniProt Q9RN43 1-2516) (natural protein),percent of TcdA1-bound cells that are GFP positive,96%
